Test results as given in patent publication US20200123221A1 (published 2020).
One block for each binder: values may come before it.

Assays:
[1] = molecular target: T1, PRAME (PRAME-004) peptide on HLA-A*02:01 (human); assay: multimer staining
T1 peptide: SLLQHLIGL

[2] = molecular target: T1, PRAME (PRAME-004) peptide on HLA-A*02:01; assay: IFN-gamma release; RNA-electroporated CD8+ T cells; T2 cells loaded with 10 µM to 10 pM peptide (FIG. 17); full-length, on cells
[3] = molecular target: T1, PRAME (PRAME-004) peptide on HLA-A*02:01; assay: IFN-gamma release; RNA-electroporated CD8+ T cells; T2 cells loaded with 10 µM to 10 pM peptide (FIG. 18); full-length, on cells

- binding result [1]: recognises
B1: R17P1A9 (TCR, V domains shown)
Valpha: QKEVEQNSGPLSVPEGAIASLNCTYSDRGSQSFFWYRQYSGKSPELIMSIYSNGDKEDGRFTAQLNKASQYVSLLIRDSQPSDSATYLCAVLNQAGTALIFGKGTTLSVSS
Vbeta: DSGVTQTPKHLITATGQRVTLRCSPRSGDLSVYWYQQSLDQGLQFLIQYYNGEERAKGNILERFSAQQFPDLHSELNLSSLELGDSALYFCASSAETGPWLGNEQFFGPGTRLTVL

- EC50 of peptide [2]: ~1000 nM
B2: R16P1E8 (TCR, V domains shown)
Valpha: QKEVEQDPGPLSVPEGAIVSLNCTYSNSAFQYFMWYRQYSRKGPELLMYTYSSGNKEDGRFTAQVDKSSKYISLFIRDSQPSDSATYLCAMSEAAGNKLTFGGGTRVLVKP
Vbeta: EAGVAQSPRYKIIEKRQSVAFWCNPISGHATLYWYQQILGQGPKLLIQFQNNGVVDDSQLPKDRFSAERLKGVDSTLKIQPAKLEDSAVYLCASSYTNQGEAFFGQGTRLTVV

- EC50 of peptide [3]: 1.83 nM
B3: R17P1D7 (TCR, V domains shown)
Valpha: AQTVTQSQPEMSVQEAETVTLSCTYDTSESDYYLFWYKQPPSRQMILVIRQEAYKQQNATENRFSVNFQKAAKSFSLKISDSQLGDAAMYFCAYRWAQGGSEKLVFGKGTKLTVNP
Vbeta: EADIYQTPRYLVIGTGKKITLECSQTMGHDKMYWYQQDPGMELHLIHYSYGVNSTEKGDLSSESTVSRIRTEHFPLTLESARPSHTSQYLCATELWSSGGTGELFFGEGSRLTVL
